Laboratory results as given in the nanobody polyreactivity screen of Harvey et al. (2022).

Experiment: yeast display, Sf9 membrane polyspecificity reagent, FACS + sequencing; frameworks hold sequencing errors
Summary of the method: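 A synthetic nanobody library was expressed on Saccharomyces cerevisiae BJ5465 by galactose induction for 36–48 hours. The library was stained for 1 hour at 4 °C with 10% biotinylated, detergent-solubilized Sf9 membrane reagent and enriched with streptavidin microbeads before FACS. Low and high (top ~1%) gates were set on anti-HA fluorescence for expression and streptavidin fluorescence for reagent binding, and each polyreactivity label reflects the gate of origin.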

Sequence | polyreactivity (PSR sort gate)
QVQLVESGGGLVQAGGSLRLSCAASGYTSKTYAMGWYRQAPGKERELVAAINWGSGSTYYADSVKGRFTISRDNAKNTVYFQMYSLKPEDTAVYYCAALVYGHRRLVGNLSRGYWGQGTQVTVSS | high polyreactivity
QVQLVESGGGLVQAGGSLRLSCAASGSTFQYYAMGWYRQAPGKERELVAAISSSGGSTYYADSVKGRFTISRDNAKNTVYLQMNSLKPEDTAVYYCAKRFRRFTYTRDYWGQGTQVTVSS | high polyreactivity
QDQLVESGGGLVQAGGSLRLSCAASGITLFYYAMGWYRQAPGKERELVAVISASGGSTYYADSVKGRFTISRDNAKNTVYLQMNSLKQEDTAVYYCAAVAYWRSSSWYYYWGLGTQVTVSS | high polyreactivity
QVQLVESGGRLVQAGGSLRLSWAASGRILWSNRMGWYRQAPGKERELVAAITYSGDTTYYADSVKGRFTISRDNEKNTVYLQMNSLKPDDTAVYYCAVEDAGQGGDYWGQGSQVTVSS | low polyreactivity
QVQLVESGGGLVHAGGSLRLSCAASGSILARYARGWYRQEPGKERELVAAISSRGGSTYYADSVKGRFTISRDYAKNTVYLQMNSLKPEDTAVYYCAASVYLQVEYDYWGQGTQVTVSS | low polyreactivity
QVQLVESGGGLVQAGGSLRLSCAASGSIFGRNAMGWYRQEPGKERELVARISYIGGSTYYADSVKGRFTISRDNAKNTVYLQMNSLKPEDTAVYYCAKRYGFRYKRMDYWGQGTQVTVSS | low polyreactivity
QVQLVESGGGLVQAGGSHRLSCAASGRIIWWYAMGWYRQAPGKEREFVASISSTGSTSYADSVKGRFTISRDNAKITVYFQMNILKPEDTAVYYCAKEGIRHQDYNLSNDYWGQGTHVTVSS | low polyreactivity
QEQQQESGGGLVQAGGSLRLSCSSSGSIILFYTMGWYRHAPVKERECVAGITLGTTTYNADSVKGRFTISRDNVKISVYLQMNSLKPEDTAVDYCAVAVGHYTEFWYWGQGTQVTMSS | high polyreactivity
QVQLVESGGGLVQAGGSLRLSCAASGRTFRLYAMGWYREAPGKERELVAAISYSGGSTYYADSVKGRFTISRDNAKNTVYLPMNSLKPEDTAVYYCAAYSGYYGGDDYWGQGTQVTVSS | high polyreactivity
QVQLVESGGGLVQAGGSLRLSCAASGFTFGYYTMGWYRPEAGKEWELVAAISNSGGRTYYADSVKGRFTISLDYAKNTVYFQMNSLKPEDTAVYYCAKAYRTPGYDSWGQGTQVTVSS | high polyreactivity
QVQLVESGGGLVQAGGSLRLSCAASGSTFYFYAMGWYRQAPGKERELVASITVRGGRTYCADSVKGRFTISRDNAKNTVYLQMNSLKPEDTAVYYCAENWSYRAYDYWGQGTQVTVSS | low polyreactivity
QVQLVESGGGLVQAGGSLRLSCAASGFTFTGYAMGWYRQAPGKERELVAVISSRGGSTYYADSVKGRFTISRDNAKNTVYLQMNSLKPEDTAVYYCAARGYKGFSSPFGYWGQGTQVTVSS | high polyreactivity
QVQLVESGGCLVPAGGSLRLSCAASGHTFSSYAMGWYRQAPGKERELVAAISVSATRTYYADSVKGRFTISRDNAKNTVYLQMNSLKPEDTAVFYCAARPVQFTYGYWGQGTQVTVSS | high polyreactivity
QVQLVESGGGLVQAGGSLRLSCAASGSIFRKNAMGWYRQAPGKERELVAAISSSGGRTYYADSVKGRFTISRDNAKNTVYLQMNSLKPEDTAVYYCAAVYSKGGSSRISPGDDYWGQGTQVTVSS | high polyreactivity
QVQLVESGGGLVQAGGSLRLSSAASGLIFRHNAMGWYRQAPGKERELVAAISSTGGRTYYADSVKGRFTISRDNAKNTVYLQMNSLKPEDTAVYYCAARHTKALWSPQNGYYWGQGTQVTVSS | high polyreactivity
QVQLVESGGGLVQAGGSLPLSCASSGFTLVTYAMGWYRQAPGKERELVAAISSSGTSTYYADSVKARFTISRDNAKNTVYLQMNSLKPEDTAVYYCAVDDTHPFGPDGGGDYWGQGTQVTVSS | low polyreactivity
QVQLVESGGGLVQAGGSLRLSCAASGFTTSQYAMGWYRQAPGKERDLVAAITSSGSSTYYADSVKGRFTISRDNAKNTVYLQMNSLKPEDTAVYYFNTDAYHRYPGSVWYYYWGQGTQVTVSS | high polyreactivity
QVQLVESGGGLVQAGGSLRLSCAASGFIFGSNAMGWYRQAPGKERELVATITKRGGTTYYADSVKGRFTISRDNAKNTVYLQMNSLKPEDTAVYYCNRSGPGFYSTRFNYWGQGTQVTVSS | high polyreactivity
QVQLVESGGGLVQAGGSLRLSCAASGFIFVIYAMGWYRQAPGKERELVARISFRSGRTYYADSVKGRFTISRDNAKNTVYLQMNSLKPEDTAVYYCNAVLYGQYKYDYWGQGTQVTVSS | high polyreactivity
QVQLVESCGGLVQAGGSLRLSCAASGYTFRYYAMGWYRQAPGKERELVARITGRAGSTYYADSVKGRFTISRDNAKNTVYLQMNSLKPEDTAVYYCAASIREGFYWGHGTQVTVSS | high polyreactivity
QVQLVESGGGLVQAGGSLRLSCAASGIIFRYYAMGWYRQAPGKEREFVAAINYSGGSTYYADSVKGRFTISRDNAKYSVYLLMNSLKPEDTAVYYCAARSYTYTAPIYGYWGQGTQVTVSS | high polyreactivity
QVQLVESGGGLVQAGGSLRLSCAASGRIFVVYAMGWYRQAPGKERELVAAITGGGRTNYADSVKGRFTISRDNAKNTVYLQMNSLKPEDTAVYYCAAGTRSDARRYYYWGQGTQVTVSS | low polyreactivity

Sequence | polyreactivity (PSR sort gate)
QVQLVESGGGVVQAGCSLRLSCAASGFTFRTNAMGWYRQAPGIEREFVAAISWSGGSTYYADSVKGRFTISRDNAKNTVYLQMNSLKPEDTAVYYCNADPFHWYYTNMYYWGQGTQVTVSS | high polyreactivity
QVQLVESGGGLVQAGGSLRLSCAASGSIFGAYAMGWYRQAPGKERELVAVIRWGGGSTYADSVKGRFTISRDNAKNTVYLQMNRLKPEDTAVYYCNRDKSWADLYSHAYDYWGQGTQVTVSS | low polyreactivity
QVQLEESGGGLGQAGGSLRLSCAASGRIFRDYAMGWSRQAPGKERELVAAITSGGTTYADSVKGRVTISRDNAKNTVYLQLNSLKPEDTAVYYCNVAWIWGKFDYWGQGTQVTVSS | high polyreactivity
QVQLVESGGGLVQAGGSLRLSCAASGLTFYSYAMGWYRQAPGKERELVADISWSGGSTYYADSVKGRFTISRDNAKNTVYLQMNSLQPEDTAVYYCAAEVFPGYDYWGQGTQVTVSS | low polyreactivity
QVQLVESGGGLVQAGGSIRSSCAASGRTFGSNAMGWSRQAPGKERELVAAISSTVSTNYADSVKGRFTISRDNAKNTVYLQMNSLKPEDTAVYYCNVTRHYSYVSEYDYWGQGTQVTVSS | low polyreactivity
QVQLVESGGGLVQAGGSLRLSCAASGFTFGAYAMGWSRQAPGKERELVASISWSGGSTYYADSVKGRFTISRDNAKNTVYLQMNSLKPEDTAVYDCNKDFVYPDDDGLFDYWGQGTQVTVSS | low polyreactivity
QVLLQESGGCLVQAGGSMRLSCAASGYISSWYPMGWYRQAPGKEREFVATIAPGATTYYADSVKGRFTISRDYAKTTVYLQMNSLKPEDTAVSYCAAGPENNDFYSYWGQGTQVTVSR | low polyreactivity
QVQLVESGGGLVQAGGSLRLSCAASGRIFPYYTMGWYRQAPGKERELVAAISSSGGSTYYADSVKGRFTISRDNAKNTVYLQMNSLKPEDTAVYYCNIRRHSLYGGTTTRYDYWGQGTQVTVSS | high polyreactivity
QVQLEESGGGLVQAGGSLRLSCAASGSTFYYNAMGWYRQAPGKEREFVARISRSGGSTYADSVKGRFTISRDNAKNTVYLQMNSLKPEDTGVYYCNADAYGTPEFTSYAVRYDYWGQGTQVTVSS | low polyreactivity
QVQLEESVGGLVQAGGSLRISCAASGRTFKLYAMGRKRQAPGKERELVATITRRGGSTYYADSVKGRFTISRDNAKNTVYLQMNSLKPEDTAVYYCASDAIGYYGTYDYWGQGTQVTVSS | high polyreactivity
QVQLVESGGGLVQAGGSLRLSCAASGSTFQYNVMGWSRQAPGKERELVAAIRQSGSTTYYADSVKGRFTISRDNAKNTVYLQMNSLKPEDSAVYYCAKRYHNWANSRMDYWGQGSQVTVSS | low polyreactivity
QVQLVESAGALVQAGGSLRLSCAASGPTFSHNAMGWDRQAPGKERELVASIRSGGLTDYADSVKGRFTISRDNAKNTVYLQMTSLKPEDSAVFYCIAEGVWWSTRYDSWGQGTQVTVSS | low polyreactivity
QVQLVESGGGLVQAGGILRLSCAASGRIFSRYVMGWYRQAPGKEREFVASITWSGSSTYYADSVKGRFTISRDNAKNTVYLQMNSLKPEDTAVYYCAALGLLSPSPWGTHISEYDSWGQGTQVTVSS | low polyreactivity
QVQLVESGGGLVQAGGSLRLSCAASGRTFYKNTMGWYRQAPGKERELVATITRRGGTTYYADSVKGRFTISRDNAKNTVYLQMNSLKPEDTAVYYCAKDASTEKYDYWGQGTQVTVSS | low polyreactivity
QVQLVESGGGLVQAGGSLRLSCAASGRTFTIYTMGWYRQAPGKERELVAAISRGGRTNYADSVKGRFTISRDNAKNTVYLQMNSLKPEDTAVYYCNADGSRYYTAYRLRLPYDYWGQGTQVTVSS | high polyreactivity
QVQLLESGGGLDQAGGTLRLSWAASGIIFSFYTMGWYRQAPGKERELVAAITWSGGSTYYADSVKGRFTISRDNAKNTVYLQMNSLKPDDTAVYYCIARNPGRKRSQGYSWGQGTQVTVSS | low polyreactivity
QVQLVESGGGLVQAGGSLRLSCAASGFTFFWYAMGWYRQAPGKERELVAGITYRGGSTYYADSVKGRFTISRDNAKNTVYLQMNSLKPEDTAVYYCNADVVTKHISAWWDRYYRRYYYWGQGTQVTVSS | low polyreactivity
QVQLVESGGGLVQAGGSLRLSGAASGGTFSNYAMGWYRPAPGKEREVVAAIRWRGGNTYYADSVKGRFTISRDNAKNTVYLQMNSLKPEDTAVYYCAAQTHDYTRSVGTTAYDYWGQGTQVTVSS | low polyreactivity
QVQLVESGGGLVQAGCSLRLSCAASGRNFVHYAMGWYRQAPGKERDLVAAISWSGGNTYYADSVKGRFTISRDNAKNTVYLQMNSLKPEDTAVYYCARAPYYVASGHRRVLRPTYEYWGQGTQVTVSS | low polyreactivity
QFQLVESGGGLVQAGGSLRLSCAASGSIFGPYAMGWYRQAPGKEREFVAAISRSGTRTNFADSVKGSFTISRDSAKNTVYLQMNSLKPEDTAVYYCATAAFIVGTSRTYDYWGQGTQVTVSS | high polyreactivity
QVQLVESGGGLVQAGGSLRLSCGASGNIFTRNAMGWSRQAPGKERECVAAITESGASTYYADSVKGRFTISRDNAKNTVYLQMNSLKPEDTAVYYCNARLSRWRRRPYDYWGQGTQVTVSS | high polyreactivity
